For 3 molecules, Kd results are on record in publication PMC7907143, “SPARC coordinates extracellular matrix remodeling and efficient recruitment to and migration of antigen-specific T cells in the brain following infection” (Scientific Reports, 2021).

Assay [1] deals with Secreted Protein, Acidic, Rich in Cysteine (SPARC), recombinant murine (murine) (UniProt P07214). As to the kind of experiment: MST; Monolith NT.115; 4.5 nM NT-495-labelled SPARC, unlabelled chemokine titrated; Ca-MST buffer (50 mM Tris pH 7.4, 150 mM NaCl, 2 mM CaCl2, 0.05% Tween 20); room temperature; three measurements; thermophoresis plus t-jump.
In the next assay the target is CXCL10 (UniProt P02778). The following applies: cited from earlier work.
Assay [2] concerns the target T1, Secreted Protein, Acidic, Rich in Cysteine (SPARC), recombinant murine (murine, UniProt P07214 18-302, fluorescent label NT-495, covalently linked by NHS coupling (in the thermophoresis only; unlabelled in the gel filtration)).
T1 construct: SPARC, mouse, recombinant; most likely the mature secreted protein; also called recombinant SPARC; source: bought: R&D Systems or Peprotech (recombinant murine)
T1 sequence (looked up): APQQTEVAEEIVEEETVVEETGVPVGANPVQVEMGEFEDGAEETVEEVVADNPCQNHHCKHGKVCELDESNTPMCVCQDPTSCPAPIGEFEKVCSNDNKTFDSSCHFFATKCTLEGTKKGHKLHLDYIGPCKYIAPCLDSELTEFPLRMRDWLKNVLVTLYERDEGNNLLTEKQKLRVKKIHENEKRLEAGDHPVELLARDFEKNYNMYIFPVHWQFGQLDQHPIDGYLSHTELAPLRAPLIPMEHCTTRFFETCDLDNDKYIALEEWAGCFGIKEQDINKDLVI
The assay can be described thus: MST; Monolith NT.115; 4.5 nM NT-495-labelled SPARC, unlabelled chemokine titrated; Ca-MST buffer (50 mM Tris pH 7.4, 150 mM NaCl, 2 mM CaCl2, 0.05% Tween 20); room temperature; three measurements; thermophoresis plus t-jump. The settings on record: both partners purified.

As for “CCL21, recombinant murine (from UniProt P84444 24-133) (ligand)”, the Kd (usually the constant that tells how readily two partners part at equilibrium) in assay [1] stood at 984 nM. With CXCL10 (from UniProt P02778), the Kd in the assay with CXCL10 was 9000 nM.

B1: CCL19, recombinant murine (ligand, UniProt O70460 26-108, looked up)
chain: GANDAEDCCLSVTQRPIPGNIVKAFRYLLNEDGCRVPAVVFTTLRGYQLCAPPDQPWVDRIIRRLKKSSAKNKGNSTRRSPVS
notes: CCL19, mouse, recombinant; Most likely the mature chemokine without its signal peptide; source: bought: R&D Systems or Peprotech (recombinant murine)
For B1, the Kd in assay [2] was determined as 1.9 nM.
